# Like-named read-outs stand apart in the source and are kept apart here. Where no end group is shown, it is not given here.
# T1: human neutrophil elastase (human, UniProt P08246 30-247, limits assumed)
# T1 sequence (looked up): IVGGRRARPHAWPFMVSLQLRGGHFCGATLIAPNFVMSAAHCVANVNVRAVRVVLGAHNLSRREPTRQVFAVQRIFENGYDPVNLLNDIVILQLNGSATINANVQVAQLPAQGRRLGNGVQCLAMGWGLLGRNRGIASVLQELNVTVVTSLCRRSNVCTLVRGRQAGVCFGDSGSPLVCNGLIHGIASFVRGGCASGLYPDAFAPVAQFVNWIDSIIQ
# Columns and labels:
# Bovine chymotrypsin [1] = target: T2, Bovine chymotrypsin (bovine, UniProt P00766 1-13; P00766 16-146; P00766 149-245); experiment: enzyme inhibition, bovine chymotrypsin 5 nM
# [2] = target: T1, human neutrophil elastase; experiment: enzyme inhibition, elastase
# Procedure: (§1) Ki values were determined from Dixon plots of the form 1/V versus performed at two different substrate concentrations (Dixon et al., 1979).
# human plasmin [3] = target: T3, human plasmin (human, UniProt P00747 97-810, limits assumed); experiment: enzyme inhibition, human plasmin 50 pM, substrate GPK-AMC
# human factor Xa [4] = target: T4, human factor Xa (human, UniProt P00742 41-179; P00742 235-488, limits assumed); experiment: enzyme inhibition, factor Xa 0.87 nM, substrate LGR-AMC
# human tissue kallikrein [5] = target: T5, human tissue kallikrein (human, UniProt P06870 25-262); experiment: enzyme inhibition, human tissue kallikrein
# Factor XIa [6] = target: T6, Factor XIa (human, UniProt P03951 19-625); experiment: enzyme inhibition, Factor XIa 0.1 nM
# T6 construct: also called FXIa; Human FXIa
# human plasmin [7] = target: T3, human plasmin; experiment: enzyme inhibition, human plasmin 50 pM
# human plasma kallikrein [8] = target: T7, human plasma kallikrein (human, UniProt P03952 20-638); experiment: enzyme inhibition, human plasma kallikrein […] nM
# human tissue kallikrein [9] = target: T5, human tissue kallikrein; experiment: enzyme inhibition, human tissue kallikrein 0.35 nM, substrate PFR-AMC
# Factor XIa [10] = target: T6, Factor XIa; experiment: enzyme inhibition, factor XIa 0.1 nM, substrate Boc-Glu(OBzl)-Ala-Arg-AMC
# human urokinase = human urokinase (human, UniProt P00749 21-431, limits assumed); experiment: enzyme inhibition, urokinase, substrate GGR-AMC
# human plasmin [11] = target: T3, human plasmin; experiment: enzyme inhibition, human plasmin 50 pM; remark: listed apart in the source
# Bovine chymotrypsin [12] = target: T2, Bovine chymotrypsin; experiment: enzyme inhibition, chymotrypsin 5 nM, substrate AAPF-pNA
# [13] = target: T1, human neutrophil elastase; experiment: enzyme inhibition (Dixon plot), human neutrophil elastase 19 nM, substrate AAPM-AMC
# Procedure: as §1
# human plasma kallikrein [14] = target: T7, human plasma kallikrein; experiment: enzyme inhibition, plasma kallikrein (apparent Ki)
# [15] = target: T8, bovine pancreatic kallikrein (bovine); experiment: enzyme inhibition, bovine pancreatic kallikrein 92.0 pM
# T8 construct: also called kallikrein-sepharose
# [16] = target: T9, bovine trypsin (type III) (bovine, UniProt P00760 24-246); experiment: enzyme inhibition, trypsin 48.5 pM
# human plasmin [17] = target: T3, human plasmin; experiment: enzyme inhibition, human plasmin 50 pM; remark: listed apart in the source
# human factor Xa [18] = target: T4, human factor Xa; experiment: enzyme inhibition, factor Xa 0.87 nM
# [19] = target: T9, bovine trypsin (type III); experiment: enzyme inhibition, trypsin 48.5 pM; remark: listed apart in the source
# human tissue kallikrein [20] = target: T5, human tissue kallikrein; experiment: enzyme inhibition, human tissue kallikrein 0.35 nM, substrate PFR-AMC; remark: listed apart in the source
# human plasma kallikrein [21] = target: T7, human plasma kallikrein; experiment: enzyme inhibition, human plasma kallikrein 2.5 nM
# Tissue Factor VIIa = target: T10, Tissue Factor VIIa; experiment: enzyme inhibition, method not described
# T10 construct: also called TF/FVIIa
# [22] = target: T8, bovine pancreatic kallikrein; experiment: enzyme inhibition, bovine pancreatic kallikrein 100 pM
# human plasmin [23] = target: T3, human plasmin; experiment: enzyme inhibition, human plasmin 50 pM; remark: listed apart in the source
# [24] = target: tissue plasminogen activator (tPA), single chain form from human melanoma cell culture (human, UniProt P00750 36-562, limits assumed); experiment: enzyme inhibition, tPA 7.5 nM, chromogenic substrate, A405
# Procedure: Inhibition of tissue plasminogen activator (tPA) was also determined as follows: tPA (single chain form from human melanoma cell culture from Sigma Chemical Co, St Louis, Mo.) was pre-incubated with inhibitor for 2 hr at room temperature in 20 mM Tris buffer pH 7.2 containing 150 mM NaCl, and 0.02% sodium azide. […] Formation of p-Nitroaniline was determined from the A405 nm measured following incubation at 37 C for 2 hr.
# Factor XIa [25] = target: T6, Factor XIa; experiment: enzyme inhibition, factor XIa 0.1 nM
# Factor XIa [26] = target: T6, Factor XIa; experiment: enzyme inhibition, FXIa 0.1 nM, substrate Boc-Glu(OBzl)-Ala-Arg-AMC
# human plasma kallikrein [27] = target: T7, human plasma kallikrein; experiment: enzyme inhibition, human plasma kallikrein […] nM, substrate PFR-AMC
# human plasmin [28] = target: T3, human plasmin; experiment: enzyme inhibition, human plasmin 50 pM, substrate GPK-AMC; remark: listed apart in the source
# human tissue kallikrein [29] = target: T5, human tissue kallikrein; experiment: enzyme inhibition, human tissue kallikrein 0.35 nM, substrate PFR-AMC; remark: listed apart in the source
# T3 sequence (P00747 97-810 limits assumed): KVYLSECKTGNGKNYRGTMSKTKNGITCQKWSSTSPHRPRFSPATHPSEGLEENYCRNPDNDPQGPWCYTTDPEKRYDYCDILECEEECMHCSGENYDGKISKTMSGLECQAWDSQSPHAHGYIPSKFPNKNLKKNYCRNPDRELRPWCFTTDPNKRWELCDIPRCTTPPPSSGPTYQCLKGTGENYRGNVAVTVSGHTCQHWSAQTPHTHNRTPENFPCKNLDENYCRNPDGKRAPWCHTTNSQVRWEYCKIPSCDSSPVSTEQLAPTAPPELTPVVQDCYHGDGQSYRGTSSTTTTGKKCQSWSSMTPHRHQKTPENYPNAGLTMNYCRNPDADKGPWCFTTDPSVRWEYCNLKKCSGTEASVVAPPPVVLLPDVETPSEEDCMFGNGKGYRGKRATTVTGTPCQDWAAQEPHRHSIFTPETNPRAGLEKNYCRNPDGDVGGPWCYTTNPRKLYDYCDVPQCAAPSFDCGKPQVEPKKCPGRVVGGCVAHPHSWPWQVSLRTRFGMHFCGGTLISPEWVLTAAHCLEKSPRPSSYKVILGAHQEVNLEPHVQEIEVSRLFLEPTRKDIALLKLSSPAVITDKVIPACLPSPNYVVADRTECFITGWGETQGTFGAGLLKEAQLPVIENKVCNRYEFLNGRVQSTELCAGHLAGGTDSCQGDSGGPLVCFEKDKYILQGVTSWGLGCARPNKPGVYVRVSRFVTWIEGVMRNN
# T7 sequence (P03952 20-638 limits assumed): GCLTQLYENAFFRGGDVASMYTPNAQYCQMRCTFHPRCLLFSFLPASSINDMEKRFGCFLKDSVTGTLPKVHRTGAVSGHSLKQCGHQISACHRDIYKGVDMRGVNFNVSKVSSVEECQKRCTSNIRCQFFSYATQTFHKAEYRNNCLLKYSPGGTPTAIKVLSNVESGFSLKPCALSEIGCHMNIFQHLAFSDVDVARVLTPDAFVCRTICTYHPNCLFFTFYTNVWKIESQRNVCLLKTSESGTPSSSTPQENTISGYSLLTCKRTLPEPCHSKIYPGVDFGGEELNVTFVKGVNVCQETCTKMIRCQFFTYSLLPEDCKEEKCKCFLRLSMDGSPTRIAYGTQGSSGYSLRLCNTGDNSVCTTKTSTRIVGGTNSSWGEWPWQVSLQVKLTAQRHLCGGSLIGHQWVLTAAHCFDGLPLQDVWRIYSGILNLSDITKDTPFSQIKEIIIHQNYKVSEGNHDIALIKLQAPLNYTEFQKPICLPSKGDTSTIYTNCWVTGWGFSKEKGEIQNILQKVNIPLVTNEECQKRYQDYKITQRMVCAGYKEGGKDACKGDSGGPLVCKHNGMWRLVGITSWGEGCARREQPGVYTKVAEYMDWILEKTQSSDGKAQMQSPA
# T5 sequence (P06870 25-262 limits assumed): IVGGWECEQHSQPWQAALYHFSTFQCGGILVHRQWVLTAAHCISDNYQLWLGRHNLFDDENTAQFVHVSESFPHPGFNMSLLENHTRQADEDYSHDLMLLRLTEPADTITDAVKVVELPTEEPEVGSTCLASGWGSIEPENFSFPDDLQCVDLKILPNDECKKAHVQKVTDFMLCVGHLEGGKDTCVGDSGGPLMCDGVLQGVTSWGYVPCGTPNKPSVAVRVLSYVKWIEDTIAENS
# T9 sequence (P00760 24-246): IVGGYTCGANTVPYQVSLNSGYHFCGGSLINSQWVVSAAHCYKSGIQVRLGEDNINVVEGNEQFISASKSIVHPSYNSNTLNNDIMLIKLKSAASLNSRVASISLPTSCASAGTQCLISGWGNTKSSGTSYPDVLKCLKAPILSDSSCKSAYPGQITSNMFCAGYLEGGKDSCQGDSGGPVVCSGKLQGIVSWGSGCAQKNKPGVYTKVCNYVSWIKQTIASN
# T4 sequence (P00742 41-179 limits assumed, chain 1 of 2): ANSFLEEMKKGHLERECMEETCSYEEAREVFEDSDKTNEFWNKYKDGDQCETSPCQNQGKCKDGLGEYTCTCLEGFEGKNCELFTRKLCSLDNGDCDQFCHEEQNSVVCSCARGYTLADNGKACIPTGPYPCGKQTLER
# T4 sequence (P00742 235-488 limits assumed, chain 2 of 2): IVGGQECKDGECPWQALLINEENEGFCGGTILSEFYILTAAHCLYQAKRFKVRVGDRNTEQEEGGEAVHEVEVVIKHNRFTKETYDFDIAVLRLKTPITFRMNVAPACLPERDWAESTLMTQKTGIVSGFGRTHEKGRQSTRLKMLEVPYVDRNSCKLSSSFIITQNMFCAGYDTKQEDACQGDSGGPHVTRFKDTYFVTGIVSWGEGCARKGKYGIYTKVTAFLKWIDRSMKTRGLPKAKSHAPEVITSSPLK
# tissue plasminogen activator (tPA), single chain form from human melanoma cell culture, sequence (P00750 36-562 limits assumed): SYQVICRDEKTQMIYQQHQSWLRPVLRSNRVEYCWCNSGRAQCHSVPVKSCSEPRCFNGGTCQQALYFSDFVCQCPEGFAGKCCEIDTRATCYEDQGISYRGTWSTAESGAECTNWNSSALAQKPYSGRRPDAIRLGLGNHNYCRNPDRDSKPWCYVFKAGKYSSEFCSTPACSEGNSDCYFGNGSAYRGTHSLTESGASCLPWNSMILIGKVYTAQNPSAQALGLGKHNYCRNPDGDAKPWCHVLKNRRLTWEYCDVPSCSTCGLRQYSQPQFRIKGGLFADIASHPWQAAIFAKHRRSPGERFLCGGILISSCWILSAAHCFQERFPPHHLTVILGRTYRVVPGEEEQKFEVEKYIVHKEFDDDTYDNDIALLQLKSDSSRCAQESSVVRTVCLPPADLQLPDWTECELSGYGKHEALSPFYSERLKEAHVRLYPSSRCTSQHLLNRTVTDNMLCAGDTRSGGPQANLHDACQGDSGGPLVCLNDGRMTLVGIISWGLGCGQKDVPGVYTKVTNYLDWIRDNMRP
binder,measurement,setting,value
"synthetic placental bikunin (102-159) (other, disulfide (positions not given here), also called KID2) YEEYCTANAVTGPCRASFPRWYFDVERNSCNNFIYGGCRGNKNSYRSEEACMLRCFRQ",Ki,Bovine chymotrypsin [1],0.2 nM
same,Ki,[2],323 nM
same,Ki,human plasmin [3],1.8 nM
same,Ki,human factor Xa [4],274 nM
same,Ki,human tissue kallikrein [5],0.13 nM
same,Ki,Factor XIa [6],15 nM
same,Ki,human plasmin [7],1.8 nM
same,Ki,human plasma kallikrein [8],0.7 nM
same,Ki,human tissue kallikrein [9],0.13 nM
same,Ki,Factor XIa [10],15 nM
same,Ki,human urokinase,11000 nM
same,Ki,human plasmin [11],1.8 nM
same,Ki,Bovine chymotrypsin [12],0.24 nM
same,Ki,[13],323 nM
"placental bikunin (102-159) expressed in yeast strain SC101 (recombinant 2.4) and purified (other, also called placental bikunin C-terminal domain) YEEYCTANAVTGPCRASFPRWYFDVERNSCNNFIYGGCRGNKNSYRSEEACMLRCFRQ",Ki,human plasma kallikrein [14],0.35 nM
"synthetic placental bikunin (7-64), first preparation of Example 2 (other, also called placental bikunin fragment (7-64); KID1) IHDFCLVSKVVGRCRASMPRWWYNVTDGSCQLFVYGGCDGNSNNYLTKEECLKKCATV",Ki,Bovine chymotrypsin [1],0.6 nM
same,Ki,[15],0.4 nM
"native human placental bikunin isolated from placenta (other, Asn 30 silent in sequencing, likely glycosylated, Soluble protein purified from human placenta; A minor species started at residue 6; also called native Placental Bikunin (1-179)) ADRERSIHDFCLVSKVVGRCRASMPRWWYNVTDGSCQLFVYGGCDGNSNNYLTKEECLKKCATVTENATGDLATSRNAADSSVPSAPRRQDSEDHSSDMFNYEEYCTANAVTGPCRASFPRWYFDVERNSCNNFIYGGCRGNKNSYRSEEACMLRCFRQQENPPLPLGSK",Ki,[16],0.13 nM
same,Ki,human plasmin [17],1.9 nM
"placental bikunin (1-170) derived from a baculovirus/Sf9 expression system (other, Both Kunitz domains, truncated before the transmembrane segment; N-terminus ADRER confirmed, so the signal peptide was removed; also called Recombinant Bikunin; recombinant placental bikunin (1-170)) ADRERSIHDFCLVSKVVGRCRASMPRWWYNVTDGSCQLFVYGGCDGNSNNYLTKEECLKKCATVTENATGDLATSRNAADSSVPSAPRRQDSEDHSSDMFNYEEYCTANAVTGPCRASFPRWYFDVERNSCNNFIYGGCRGNKNSYRSEEACMLRCFRQQENPPLPLGSK",Ki,human factor Xa [18],180 nM
same,Ki,[19],0.064 nM
same,Ki,human tissue kallikrein [20],0.04 nM
same,Ki,human plasma kallikrein [21],0.18 nM
same,Ki,Tissue Factor VIIa,800 nM
same,Ki,[22],0.12 nM
same,Ki,human plasmin [23],0.23 nM
same,Ki,[24],< 60 nM
same,Ki,Factor XIa [25],3 nM
"CHO expressed placental bikunin (1-170) (other, N-linked carbohydrate at Asn-30 and Asn-61 (so in the source), Glycosylated isoforms of 21-38 kDa; also called CHO Bikunin (1-170)) ADRERSIHDFCLVSKVVGRCRASMPRWWYNVTDGSCQLFVYGGCDGNSNNYLTKEECLKKCATVTENATGDLATSRNAADSSVPSAPRRQDSEDHSSDMFNYEEYCTANAVTGPCRASFPRWYFDVERNSCNNFIYGGCRGNKNSYRSEEACMLRCFRQQENPPLPLGSK",Ki,Factor XIa [26],1.9 nM
same,Ki,human plasma kallikrein [27],0.5 nM
same,Ki,human plasmin [28],0.2 nM
same,Ki,human tissue kallikrein [29],0.3 nM

# Source: US20070086956A1 (Bayer, published 2007)
